{
  "source": "paper PMC3391209",
  "about": "“A Lon-Like Protease with No ATP-Powered Unfolding Activity” (PLoS ONE, 2012)",
  "key": {"MtaLonC": {"target": "T1, MtaLonC (Meiothermus taiwanensis, UniProt C9DRU9)", "T1 construct": "gene lon_2; full-length, 719 residues, C-terminal His tag (pET21a), expressed in E. coli BL21(DE3); homohexamer, monomer 79 kDa", "T1 sequence (C9DRU9 1-719)": "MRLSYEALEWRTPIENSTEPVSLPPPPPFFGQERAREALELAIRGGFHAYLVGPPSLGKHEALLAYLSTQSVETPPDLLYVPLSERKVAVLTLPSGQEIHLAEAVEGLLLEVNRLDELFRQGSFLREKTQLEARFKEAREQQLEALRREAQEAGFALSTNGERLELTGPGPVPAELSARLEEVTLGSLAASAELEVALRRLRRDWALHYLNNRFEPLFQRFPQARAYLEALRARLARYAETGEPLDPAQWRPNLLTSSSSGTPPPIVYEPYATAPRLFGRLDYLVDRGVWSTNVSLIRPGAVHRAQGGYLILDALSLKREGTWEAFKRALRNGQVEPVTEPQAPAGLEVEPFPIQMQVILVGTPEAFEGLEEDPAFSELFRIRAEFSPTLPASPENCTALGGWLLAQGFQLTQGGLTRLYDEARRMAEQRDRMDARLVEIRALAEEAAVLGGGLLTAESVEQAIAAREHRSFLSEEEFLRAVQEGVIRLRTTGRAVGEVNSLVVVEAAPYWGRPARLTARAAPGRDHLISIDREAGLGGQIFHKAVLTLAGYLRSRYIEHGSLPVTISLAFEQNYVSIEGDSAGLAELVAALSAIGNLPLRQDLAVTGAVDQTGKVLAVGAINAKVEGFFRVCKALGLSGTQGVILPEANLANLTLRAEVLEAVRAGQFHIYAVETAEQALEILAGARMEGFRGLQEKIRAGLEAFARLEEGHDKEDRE", "assay": "isothermal titration calorimetry, one-site fit", "assay_type": "binding"}, "[1]": {"target": "Lon-like protease MtaLonC from Meiothermus taiwanensis WR-220 (Meiothermus taiwanensis WR-220)", "assay": "SEC; Superose 6; 1 mg/mL, pH 5-8; hexamer formation not dependent on Mg2+ or ATP; aggregates in the void volume when concentrated"}, "[2]": {"target": "Lon-like protease MtaLonC from Meiothermus taiwanensis WR-220 (Meiothermus taiwanensis WR-220)", "assay": "negative-stain electron microscopy; about 50 µg/ml MtaLonC, 2% uranyl acetate, class averages; hexamer and void-volume fractions from Superose 6"}, "[3]": {"target": "Lon-like protease MtaLonC from Meiothermus taiwanensis WR-220 (Meiothermus taiwanensis WR-220)", "assay": "AUC; sedimentation equilibrium (4,000-6,000 r.p.m.) and sedimentation velocity (20,000 rpm), 20°C, 20 mM sodium citrate pH 5.5, 100 mM NaCl, 1 mM DTT, 7.8 µM protein"}, "EcLonA": {"target": "T2, EcLonA (Escherichia coli, UniProt P0A9M0)", "T2 construct": "gene lon; recombinant, expressed and purified as described previously", "T2 sequence (P0A9M0 2-784)": "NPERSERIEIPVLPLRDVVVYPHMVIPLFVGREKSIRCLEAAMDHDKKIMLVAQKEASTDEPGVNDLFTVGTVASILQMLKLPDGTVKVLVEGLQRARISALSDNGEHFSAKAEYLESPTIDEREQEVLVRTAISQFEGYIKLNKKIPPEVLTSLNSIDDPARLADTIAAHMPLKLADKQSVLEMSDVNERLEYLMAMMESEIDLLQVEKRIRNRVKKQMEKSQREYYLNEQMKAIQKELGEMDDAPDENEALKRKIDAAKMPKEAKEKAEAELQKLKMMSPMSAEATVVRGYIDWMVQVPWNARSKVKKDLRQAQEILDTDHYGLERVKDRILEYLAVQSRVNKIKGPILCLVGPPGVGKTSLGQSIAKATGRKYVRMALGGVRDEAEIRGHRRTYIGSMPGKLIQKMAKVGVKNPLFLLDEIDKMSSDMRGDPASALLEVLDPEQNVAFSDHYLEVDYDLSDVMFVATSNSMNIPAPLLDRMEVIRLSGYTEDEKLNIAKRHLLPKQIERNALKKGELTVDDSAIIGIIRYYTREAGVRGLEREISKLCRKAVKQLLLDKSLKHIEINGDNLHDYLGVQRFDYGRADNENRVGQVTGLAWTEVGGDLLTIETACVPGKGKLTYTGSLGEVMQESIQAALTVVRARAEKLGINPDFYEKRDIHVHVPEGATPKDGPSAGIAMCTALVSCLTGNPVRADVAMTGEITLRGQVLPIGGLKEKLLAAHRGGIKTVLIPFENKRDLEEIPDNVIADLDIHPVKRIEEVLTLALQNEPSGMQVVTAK", "assay": "[…]-NMR of phosphate release; colorimetric ATPase assay", "assay_type": "biochemical", "settings": "37 °C, 50 mM Tris-HCl pH 8.0, 10 mM MgCl2, 10 mM ATP (NMR); positive control"}},
  "data": [
    {"compound": "Nc1ncnc2c1ncn2[C@@H]1O[C@H](CO[P@](=O)(O)O[P@](=O)(O)O[P@@](=O)(O)S)[C@@H](O)[C@H]1O", "note": "[ATPγS]", "values": [
      {"measurement": "Kd", "setting": "MtaLonC", "result": 7.8, "unit": "µM"}
    ]},
    {"compound": "Lon-like protease MtaLonC from Meiothermus taiwanensis WR-220 (enzyme)", "values": [
      {"measurement": "stoichiometry N", "setting": "[1]", "result": 6},
      {"measurement": "stoichiometry N", "setting": "[2]", "result": 6},
      {"measurement": "stoichiometry N", "setting": "[3]", "result": 6}
    ]},
    {"compound": "Nc1ncnc2c1ncn2[C@@H]1O[C@H](COP(=O)(O)OP(=O)(O)OP(=O)(O)O)[C@@H](O)[C@H]1O", "note": "[ATP]", "values": [
      {"measurement": "31P-NMR of phosphate release; colorimetric ATPase assay", "setting": "EcLonA", "result": "incubation of an excess amount of ATP with EcLonA resulted in hydrolysis of ATP"}
    ]}
  ]
}
